{"source": "paper PMC3039359", "binders": {"B1": {"name": "SL-AU RNA (structured_RNA)", "RNA": "GGGUUUCCUUCUCAAACAUUCUGUUUGGUAGUGAGUAAUUAAAAAUGAAUU"}}, "key": {"[1]": {"target": "T1, Rrp47 ΔC (Saccharomyces cerevisiae, UniProt P38801 1-120, del121-184)", "T1 sequence": "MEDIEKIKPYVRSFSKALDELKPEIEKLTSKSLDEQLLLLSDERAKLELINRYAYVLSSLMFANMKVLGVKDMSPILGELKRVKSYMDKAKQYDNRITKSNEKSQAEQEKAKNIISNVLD", "assay": "filter binding"}, "[2]": {"target": "T2, Rrp47 (Saccharomyces cerevisiae, UniProt P38801 1-184)", "T2 sequence": "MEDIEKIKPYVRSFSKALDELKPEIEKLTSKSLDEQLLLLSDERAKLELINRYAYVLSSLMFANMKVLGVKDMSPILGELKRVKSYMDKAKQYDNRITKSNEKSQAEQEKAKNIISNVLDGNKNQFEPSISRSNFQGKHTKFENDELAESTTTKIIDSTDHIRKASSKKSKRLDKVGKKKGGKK", "assay": "filter binding"}}, "data": [{"binder": "B1", "values": [{"measurement": "binding result", "setting": "[1]", "value": "no binding"}, {"measurement": "Kd", "setting": "[2]", "value": "~1000", "unit": "nM"}]}]}
